Test results as given in patent US20260217846A1 (published 2026).

B1: Clone 54 4-1BB antibody (IgG2a) (antibody, V domains shown)
VH: EFQLQQSGPELVKPGASVKISCKASGYSFTDYNMNWVKQSNGKSLEWIGVINPNYGTTSYNQKFKGKATFTVDQSSSTAYMQLNSLTSEDSAVYYCARSPVEDYFDYWGQGTTLTVSS
VL: ENVLTQSPAIMSASPGEKVTMTCRARSSVSSSYLHWYQQKSGASPKLWIYSTSNLASGVPARFSGSGSGTSYSLTISSVEAEDAATYYCQQYSGYPLITFGAGTKLELKR
B2: Clone 49A 4-1BB antibody (IgG1) (antibody, V domains shown)
VH: VKLQQSGPELVKPGASVKISCKASGYTFTDYYMNWVKESHGKSLEWIGDINPNNGGSTYYNQKFKGKATLTVEKSSSTAFMELRSLTSEDSAVYYCARSLYGSTYYFDYWGQGTPLTVSS
VL: DIVLTQSPASLAVSLGQRATISCKASQSVDYDGDSYMNWYQQKPGQPPKLLIYAASNLESGIPARFSGSGSGTDFTLNIHPVEEEDAGTYYCQQSNDDPWTFGGGTKLEIK
B3: Clone 138 4-1BB antibody (IgG2b) (antibody, V domains shown)
VH: VQLQESGGGLVKPGGSLKLSCAASGFTFSDYGMHWVRQAPEKGLEWVAYISSGSNSIYYADTVTGRFTISRDNAKNTLFLQMTSLRSEDTAMYYCASNNGYFYFDYWGQGTTLTVSS
VL: IVITQSPAILSASPGEKVTMTCRASSSVSYMHWYQQKPGSSPKPWIYATSNLASGVPARFSGSGSGTSYSLTVSRVEAEDAATYYCQQWSSDPFTFGSGTKLEIK

Each binder was assayed against recombinant human 4-1BB (human, UniProt Q07011 24-186) (assay: ELISA).
Chain of recombinant human 4-1BB (Q07011 24-186): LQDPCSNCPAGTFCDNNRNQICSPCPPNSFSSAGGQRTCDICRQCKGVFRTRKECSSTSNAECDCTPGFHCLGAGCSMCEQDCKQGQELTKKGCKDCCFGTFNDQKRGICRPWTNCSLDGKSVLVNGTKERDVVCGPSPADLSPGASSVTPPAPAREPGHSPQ
B1 was tested, and the EC50 was 16 ng/mL.
For B2, the EC50 was 1.32 ng/mL.
With B3 the EC50 was 4.71 ng/mL.
